Residue numbers refer to the chain shown, from its start. Numbers in names are those of the source. Blank lines part the entries; values can stand above or below the molecule they belong to.
Legend:
[1] = target: T1, human TrkB (Homo sapiens, UniProt Q16620); experiment: Receptor tyrosine phosphorylation (KIRA) in TrkB expressing cell line; format: cell-based; conditions: for functional binding with TrkB in the KIRA assay: single cysteine mutants
T1 construct: expressed in transfected cells
Source text: Method of making pegylated NT-4/5 (S50C): The native form of NT-4/5 used in this study was produced according to the method described in U.S. Pat. No. 6,184,360. A site-directed pegylated NT-4/5 was also produced. The structure of NT-4/5 in complex with domain 5 of TrkB was examined to find amino acid side chains that would be surface available and unlikely to interfere with natural disulfide bonds and also unlikely to interfere in either the interactions between the monomer subunits of NT-4/5 or the TrkB domain 5 to create a PEG attaching site. […] […] Mutant proteins were expressed in E. coli, solubilized, extracted, purified and refolded as the native NT-4/5. To pegylate the refolded NT4-S50C, NT4-Q105C, and NT-4-E67C, first a mild reduction with 0.1 mM DTT (dithiothreitol) was performed. Excess DTT was removed by dialysis against 50 mM sodium acetate at pH 6, then a 5 molar excess of mPEG-maleimide (M. W. of 10,000 Da, SunBio, Inc., South Korea) was incubated with the protein at 37° C. for several days with gentle agitation. Pegylated protein, non-pegylated protein and unreacted PEG were separated via ion exchange or size exclusion chromatography.
(§1) Assays of TrkB specific activation by pegylated NT-4/5: Stable cell lines expressing human TrkA, TrkB or TrkC were used to determine the functional activity, i.e. receptor phosphorylation, of NT-4/5 and pegylated NT-4/5 as previously described (Sadick et al. Experimental Cell Research 234: 354-361, 1997).
as §1, with “and different forms of” for “and”

[2] = test system: NONcNZO-10 polygenic obese mice; experiment: Non-fasting blood triglyceride level in NONcNZO-10 mice (Example 4, Table 18); format: in vivo; set-up: non-fasting blood triglyceride level: unit not given here; conditions: NONcNZO-10 mice, mean
Source text: (§2) Test animals: 40 male NONcNZO-10 polygenic obese mice obtained from Jackson Laboratory at 10 weeks of age weighing in the range of 26-32 g were used in this study.
(§3) Administration of NT-4/5: NT-4/5 was produced in E. coli as descried in U.S. Pat. No. 6,184,360. The mice were divided into 6 groups of equivalent body weight and baseline blood glucose distribution (6-7 mice per group). […] A “paired-fed” control group received daily injection of vehicle, but were only fed with the same amount of food the 3 mg/kg group consumed the previous day. On the day when the treatment started (day 1), a baseline blood samples were collected for measuring glucose and triglyceride. Triglyceride level was measured on day 10. At the end of the study (day 12), a terminal blood sample was collected to determine glucose, triglyceride, electrolytes (Na, K, Cl), testoterone, corticosterone, thyroid hormone (total T4) and thyroid stimulating hormone (TSH) levels. Electrolytes, free testosterone, T4 and TSH levels of serum samples were measured by AniLytics (Gaithesburg, M.D) according to the standard protocols employed by the vendor. Other analytes were measured as described above. Body weight, food intake were monitored 5 days per week through out the entire study. Daily water intake was measured from day 5 through day 7.

[3] = test system: NONcNZO-10 polygenic obese mice; experiment: Body weight in NONcNZO-10 mice (Example 4, Table 19); format: in vivo; set-up: body weight: unit not given here; conditions: NONcNZO-10 mice, mean
Source text: as §2, §3

[4] = test system: NONcNZO-10 polygenic obese mice; experiment: Food intake in NONcNZO-10 mice (Example 4, Table 20); format: in vivo; set-up: unit not given here; conditions: NONcNZO-10 mice, mean
Source text: as §2, §3

T1 sequence (Q16620 32-822): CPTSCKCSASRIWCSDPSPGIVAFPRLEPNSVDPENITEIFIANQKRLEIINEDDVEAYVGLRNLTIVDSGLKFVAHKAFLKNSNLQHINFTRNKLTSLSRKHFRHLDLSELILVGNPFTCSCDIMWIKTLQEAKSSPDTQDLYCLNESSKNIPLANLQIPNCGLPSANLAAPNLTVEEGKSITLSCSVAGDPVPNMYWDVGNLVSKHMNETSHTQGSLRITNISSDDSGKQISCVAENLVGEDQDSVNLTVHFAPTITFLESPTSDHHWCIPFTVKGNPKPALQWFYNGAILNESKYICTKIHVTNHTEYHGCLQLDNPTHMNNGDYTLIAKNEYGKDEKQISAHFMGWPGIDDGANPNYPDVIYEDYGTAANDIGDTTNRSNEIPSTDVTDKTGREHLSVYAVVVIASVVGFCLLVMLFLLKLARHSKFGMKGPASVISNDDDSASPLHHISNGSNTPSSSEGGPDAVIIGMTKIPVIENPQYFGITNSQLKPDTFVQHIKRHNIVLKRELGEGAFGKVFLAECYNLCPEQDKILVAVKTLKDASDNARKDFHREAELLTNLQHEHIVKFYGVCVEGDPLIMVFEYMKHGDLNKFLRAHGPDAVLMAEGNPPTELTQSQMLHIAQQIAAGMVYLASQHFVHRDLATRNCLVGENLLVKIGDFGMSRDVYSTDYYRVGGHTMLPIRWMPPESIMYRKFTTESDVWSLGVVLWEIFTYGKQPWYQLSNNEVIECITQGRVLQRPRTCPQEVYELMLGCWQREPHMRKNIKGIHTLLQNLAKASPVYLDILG

functional binding with TrkB in the KIRA assay [1]: found possible
B1: S50C: single cysteine mutant of mature human NT-4/5, serine 50 to cysteine (protein)
chain: GVSETAPASRRGELAVCDAVSGWVTDRRTAVDLRGREVEVLGEVPAAGGCPLRQYFFETRCKADNAEEGGPGAGGGGCRGVDRRHWVSECKAKQSYVRALTADAQGRVGWRWIRIDTACVCTLLSRTGRA

functional binding with TrkB in the KIRA assay [1]: found possible
B2: Q105C: single cysteine mutant of mature human NT-4/5 at position 105 (protein)
chain: B1 chain with C50S, Q105C

B3: NT4 (protein)
chain: B1 chain with C50S
non-fasting blood triglyceride level ([2]; 0.1 mg/kg s.c. daily, Day 1 (baseline)): 291.7
non-fasting blood triglyceride level ([2]; 0.1 mg/kg s.c. daily, Day 10): 172.7
non-fasting blood triglyceride level ([2]; 0.3 mg/kg s.c. daily, Day 1 (baseline)): 279.3
non-fasting blood triglyceride level ([2]; 0.3 mg/kg s.c. daily, Day 10): 208.0
non-fasting blood triglyceride level ([2]; 1 mg/kg s.c. daily, Day 1 (baseline)): 307.7
non-fasting blood triglyceride level ([2]; 1 mg/kg s.c. daily, Day 10): 226.3
non-fasting blood triglyceride level ([2]; 3 mg/kg s.c. daily, Day 1 (baseline)): 306.1
non-fasting blood triglyceride level ([2]; 3 mg/kg s.c. daily, Day 10): 226.3
body weight ([3]; 0.1 mg/kg s.c., Day 1): 100.0
body weight ([3]; 0.1 mg/kg s.c., Day 2): 97.7
body weight ([3]; 0.1 mg/kg s.c., Day 3): 100.0
body weight ([3]; 0.1 mg/kg s.c., Day 4): 102.2
body weight ([3]; 0.1 mg/kg s.c., Day 5): 104.5
body weight ([3]; 0.1 mg/kg s.c., Day 8): 102.2
body weight ([3]; 0.1 mg/kg s.c., Day 9): 102.8
body weight ([3]; 0.1 mg/kg s.c., Day 10): 103.3
body weight ([3]; 0.1 mg/kg s.c., Day 11): 105.1
body weight ([3]; 0.3 mg/kg s.c., Day 1): 100.0
body weight ([3]; 0.3 mg/kg s.c., Day 2): 98.3
body weight ([3]; 0.3 mg/kg s.c., Day 3): 98.9
body weight ([3]; 0.3 mg/kg s.c., Day 4): 100.6
body weight ([3]; 0.3 mg/kg s.c., Day 5): 101.8
body weight ([3]; 0.3 mg/kg s.c., Day 8): 101.2
body weight ([3]; 0.3 mg/kg s.c., Day 9): 102.4
body weight ([3]; 0.3 mg/kg s.c., Day 10): 102.9
body weight ([3]; 0.3 mg/kg s.c., Day 11): 104.1
body weight ([3]; 1 mg/kg s.c., Day 1): 100.0
body weight ([3]; 1 mg/kg s.c., Day 2): 97.1
body weight ([3]; 1 mg/kg s.c., Day 3): 94.8
body weight ([3]; 1 mg/kg s.c., Day 4): 98.2
body weight ([3]; 1 mg/kg s.c., Day 5): 99.2
body weight ([3]; 1 mg/kg s.c., Day 8): 97.7
body weight ([3]; 1 mg/kg s.c., Day 9): 97.6
body weight ([3]; 1 mg/kg s.c., Day 10): 97.6
body weight ([3]; 1 mg/kg s.c., Day 11): 99.0
body weight ([3]; 3 mg/kg s.c., Day 1): 100.0
body weight ([3]; 3 mg/kg s.c., Day 2): 95.6
body weight ([3]; 3 mg/kg s.c., Day 3): 94.6
body weight ([3]; 3 mg/kg s.c., Day 4): 94.6
body weight ([3]; 3 mg/kg s.c., Day 5): 94.6
body weight ([3]; 3 mg/kg s.c., Day 8): 92.2
body weight ([3]; 3 mg/kg s.c., Day 9): 92.2
body weight ([3]; 3 mg/kg s.c., Day 10): 92.7
body weight ([3]; 3 mg/kg s.c., Day 11): 92.6
food intake ([4]; 0.1 mg/kg s.c., Day 1): 5.17
food intake ([4]; 0.1 mg/kg s.c., Day 2): 5.50
food intake ([4]; 0.1 mg/kg s.c., Day 3): 5.83
food intake ([4]; 0.1 mg/kg s.c., Day 4): 6.00
food intake ([4]; 0.1 mg/kg s.c., Day 5): 5.50
food intake ([4]; 0.1 mg/kg s.c., Day 8): 4.50
food intake ([4]; 0.1 mg/kg s.c., Day 9): 4.83
food intake ([4]; 0.1 mg/kg s.c., Day 10): 5.00
food intake ([4]; 0.3 mg/kg s.c., Day 1): 5.32
food intake ([4]; 0.3 mg/kg s.c., Day 2): 5.67
food intake ([4]; 0.3 mg/kg s.c., Day 3): 5.33
food intake ([4]; 0.3 mg/kg s.c., Day 4): 5.67
food intake ([4]; 0.3 mg/kg s.c., Day 5): 4.83
food intake ([4]; 0.3 mg/kg s.c., Day 8): 4.33
food intake ([4]; 0.3 mg/kg s.c., Day 9): 4.50
food intake ([4]; 0.3 mg/kg s.c., Day 10): 4.67
food intake ([4]; 1 mg/kg s.c., Day 1): 5.07
food intake ([4]; 1 mg/kg s.c., Day 2): 5.43
food intake ([4]; 1 mg/kg s.c., Day 3): 4.86
food intake ([4]; 1 mg/kg s.c., Day 4): 4.71
food intake ([4]; 1 mg/kg s.c., Day 5): 4.43
food intake ([4]; 1 mg/kg s.c., Day 8): 3.93
food intake ([4]; 1 mg/kg s.c., Day 9): 4.00
food intake ([4]; 1 mg/kg s.c., Day 10): 4.14
food intake ([4]; 3 mg/kg s.c., Day 1): 5.13
food intake ([4]; 3 mg/kg s.c., Day 2): 4.86
food intake ([4]; 3 mg/kg s.c., Day 3): 4.29
food intake ([4]; 3 mg/kg s.c., Day 4): 4.29
food intake ([4]; 3 mg/kg s.c., Day 5): 4.00
food intake ([4]; 3 mg/kg s.c., Day 8): 3.86
food intake ([4]; 3 mg/kg s.c., Day 9): 3.57
food intake ([4]; 3 mg/kg s.c., Day 10): 3.86

receptor tyrosine phosphorylation of TrkB-expressing cell line [1]: active in activating TrkB receptor
B4: Pegylated NT-4/5(E67C): NT-4/5 with glutamic acid 67 changed to cysteine, pegylated with mPEG-maleimide (10,000 Da) (conjugate)
chain: B1 chain with C50S, E67C

functional binding with TrkB in the KIRA assay [1]: found possible
B5: E67C: single cysteine mutant of mature human NT-4/5, glutamic acid 67 to cysteine (protein)
chain: B1 chain with C50S, E67C

Reference: patent publication US20090203610A1, “METHODS OF TREATING OBESITY OR DIABETES USING NT-4/5” (RINAT NEUROSCIENCE CORPORATION, priority 2004, published 2009)
